Measured values taken from patent US20240279845A1, “METHOD FOR PREPARING A LIBRARY OF PEPTIDES OR A PEPTIDE” (ECOLE POLYTECHNIQUE FEDERALE DE LAUSANNE (EPFL), priority 2021, published 2024).

How the values were obtained:
[1] = tested on: Cc1cc(=O)oc2cc(NC(=O)[C@H](CCCNC(=N)N)NC(=O)[C@@H]3CCCN3C(=O)[C@@H](NC(=O)OC(C)(C)C)C(C)C)ccc12; assay: Substrate KM for protease screen, KLK5; assay type: biochemical; details: other: KLK5
Description: (§1) Crude macrocyclic libraries (4 mM DMSO stocks in 384-well LDV plates were transferred into 1536-well microtiter OptiPlates via ADE. Applied buffered solutions were prepared by filtration through PTFE syringe filters (0.22 μm) and assays were initiated by addition of protease (4.41 μl/well) in appropriate buffer (see list below) supplemented with bovine serum albumin (BSA; 0.1% w/v) and dispensed using a CERTUS automated liquid handler. Plates were incubated for 10 min at ambient temperature before fluorogenic substrate in appropriate buffer (4.5 μl) was added using a CERTUS automated liquid handler. Plates were centrifugated (800 g, 2 min) and fluorescence intensity was measured using a PHERAstar plate reader (excitation 384 nm, emission 440 nm) in time increments of 150 s over 15 min. Slopes of fluorescence increase (m) were calculated with Microsoft Excel (vers. 16.56). Negative controls were prepared without macrocycle. An average of 12 negative controls was used to calculate residual activities using Equation I below: […]
(§2) where [S]0 is the initial substrate concentration and KM is the Michaelis-Menten constant^12 for the enzyme and substrate.

[2] = tested on: Cc1cc(=O)oc2cc(NC(=O)[C@H](CCCNC(=N)N)NC(=O)[C@H](Cc3ccccc3)NC(=O)OCc3ccccc3)ccc12; assay: Substrate KM for protease screen, PKal; assay type: biochemical; details: other: PKal
Description: as §1, §2

Chain of PKal (Homo sapiens) (chain, as listed by the source): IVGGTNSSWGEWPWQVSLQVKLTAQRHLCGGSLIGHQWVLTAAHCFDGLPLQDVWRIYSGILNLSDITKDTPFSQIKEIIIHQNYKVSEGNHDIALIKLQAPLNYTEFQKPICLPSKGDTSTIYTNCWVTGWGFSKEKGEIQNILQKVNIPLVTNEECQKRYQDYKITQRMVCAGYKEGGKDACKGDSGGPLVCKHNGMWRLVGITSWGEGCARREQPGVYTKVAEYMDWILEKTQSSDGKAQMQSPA

| Substance | Km [1] | Km [2] |
| --- | --- | --- |
| KLK5 (Homo sapiens) | 200 ± 10 µM |  |
| PKal (Homo sapiens) |  | 120 ± 28 µM |
